The assay concerns the target T1, His-DDA3 (UniProt Q6PGN9 1-363).
T1 sequence (looked up): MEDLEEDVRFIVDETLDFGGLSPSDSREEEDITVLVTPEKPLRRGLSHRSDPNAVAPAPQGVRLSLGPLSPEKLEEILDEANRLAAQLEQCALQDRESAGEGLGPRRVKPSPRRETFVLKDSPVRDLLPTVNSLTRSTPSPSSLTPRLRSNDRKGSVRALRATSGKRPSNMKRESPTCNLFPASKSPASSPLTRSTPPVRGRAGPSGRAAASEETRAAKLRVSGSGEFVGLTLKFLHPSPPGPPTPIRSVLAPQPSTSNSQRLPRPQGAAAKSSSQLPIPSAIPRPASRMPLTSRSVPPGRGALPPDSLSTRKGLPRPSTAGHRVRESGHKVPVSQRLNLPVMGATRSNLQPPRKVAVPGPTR
In words: pull-down.

B1: GST-EB1 (natural protein, UniProt Q15691 1-268, looked up)
chain: MAVNVYSTSVTSDNLSRHDMLAWINESLQLNLTKIEQLCSGAAYCQFMDMLFPGSIALKKVKFQAKLEHEYIQNFKILQAGFKRMGVDKIIPVDKLVKGKFQDNFEFVQWFKKFFDANYDGKDYDPVAARQGQETAVAPSLVAPALNKPKKPLTSSSAAPQRPISTQRTAAAPKAGPGVVRKNPGVGNGDDEAAELMQQVNVLKLTVEDLEKERDFYFGKLRNIELICQENEGENDPVLQRIVDILYATDEGFVIPDEGGPQEEQEEY
Consider B1, for which the binding result is on record as “binds”.

The values above are taken from paper PMC3647168 (Scientific Reports, 2013).
